Experimental data from publication PMC11109945.
Ends that are not written are not given here. * marks the point of attachment. Biotin = O=C1N[C@H]2[C@H](CS[C@H]2CCCCC(=O)*)N1

Target: T1, GST-WSB2 WDR (human)
T1 sequence (Q9NYS7 whole entry, looked up): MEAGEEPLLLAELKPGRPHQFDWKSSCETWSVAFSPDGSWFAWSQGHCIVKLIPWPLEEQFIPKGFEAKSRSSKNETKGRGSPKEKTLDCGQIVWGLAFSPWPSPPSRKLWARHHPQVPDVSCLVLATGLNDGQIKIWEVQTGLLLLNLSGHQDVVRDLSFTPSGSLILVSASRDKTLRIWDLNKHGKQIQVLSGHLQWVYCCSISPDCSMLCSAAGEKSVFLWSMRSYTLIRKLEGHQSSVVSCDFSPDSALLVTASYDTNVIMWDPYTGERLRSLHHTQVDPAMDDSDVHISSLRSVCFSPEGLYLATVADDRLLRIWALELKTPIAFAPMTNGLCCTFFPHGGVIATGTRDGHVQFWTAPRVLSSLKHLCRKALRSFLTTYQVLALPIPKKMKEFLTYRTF
Assay: pull-down + far-Western, overlay or dot blot; about 3 ug glutathione beads-bound GST-WSB2 WDR with 1.8 nmol biotin-labeled RelA peptide in 500 ul GST binding buffer, 4°C, 1 h; washed, eluted with 20 mM GSH, denatured, spotted on nitrocellulose; anti-biotin and anti-GST

Biotin-TFKSIMK(Me)K(Me)SPFSG [biotin-labeled K314/315 monomethylated RelA peptide (a.a. 308-320)]
fold affinity against the unmethylated peptide: 3 to 4 fold
